Experimental data published in patent publication US20200181210A1, “MODIFIED CYCLIC PEPTIDES AND THERAPEUTIC USE THEREOF” (THE BROAD INSTITUTE, INC., priority 2017, published 2020).

Tested on: trypsin
Experiment: trypsin protease digestion resistance of cyclotides (SDS-PAGE)
Protocol: Protease conditions were tested on cyclotides and variants. Samples were subjected to 10 μg of trypsin at 37° C. for up to 24 hours. […] Four elutions were collected in 200 μL fractions. Protein content of bound/eluted material was quantified based upon detection of fluorescently labeled lysines within bound/eluted sequences.
The cyclotides and empty yeast vector were then subjected to 10 μg trypsin protease digestion at 37° C. for up to 24 hours.

Q: What does the source list for “pYES-MCoTI: native (natural) MCoTI cyclotide expressed in yeast from the pYES vector (cyclo(GGVCPKILQRCRRDSDCPGACICRGNGYCGSGSD); also: cyclic cystine knot, three disulfides CysI-IV, II-V, III-VI)”?
A: resistance to trypsin digestion (10 μg trypsin, 37° C., up to 24 hours, SDS-PAGE): resistant to trypsin digestion; resistance towards trypsin (trypsin exposure up to 18 hrs (FIG. 28)): resistance towards trypsin up to 18 hrs with no change in levels
